Reference: the supplement of paper PMC12764529
± gives the half width of the 95% confidence interval.

experiment: folding stability dG unfold from chymotrypsin proteolysis; higher = more stable
Procedure, shortened: (§1)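 Digests were run with trypsin and chymotrypsin at 11 concentrations in threefold dilutions, plus a no-protease condition, on designed mini-proteins in a PA-tagged cDNA display construct. The mini-proteins were under 80 residues, had no cysteine, and were kept only when AlphaFold2 dimer inter-PAE was above 15. After sequencing, Bayesian fitting of the counts gave K50, from which unfolding free energy was derived against a sequence-predicted unfolded-state K50 and a shared folded-state K50, per protease or combined.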

“SAGGSAMLKVTERTVEVEVFDEEGNPIGWRERKIVVEDPLSPEPRPPPPPVDPVLAAETLGADVLESAGGSA [r15_572_JUSTAS]” and “SAGGSAGGSAGGMKLDVTIVGDGKVTTLPADSLEDVEETLKKLGLTLKSVDPATGTVTVASAGGSAGGSAGG [r7_726_JUSTAS]” are within error of each other in “folding stability dG unfold” value: 0.543 ± 0.21 kcal/mol for the first, -0.0786 ± 0.54 kcal/mol for the second.

First: SAAMLFEKKTGIKVDVSLVPPEQISQLPPSYTVTPEGDVVVVTTVTTLPLSSYPVKLPPVYDPNTLKLLSAG [r14_126_JUSTAS]
Second: MEIKKIELKVEEKDGKLVLTVKIEVFDKNGKLVKKVEIKLEVPKELKEGQSLEELPLSEELRKLVKELLEKS [r1_354_TrROS_Hall]
The “folding stability dG unfold” value of the first is lower: -0.376 ± 0.19 kcal/mol for the first, 3.79 ± 0.34 kcal/mol for the second.

Going from “SMKPGELVLVTETETRTFTVTPEDLPPGWKVKEVKVTVTRVALFRVTPDGRVELVEEVTSVEIEVTLEPESA [r9_747_TrROS_Hall]” to “SAGGGALVLPDPDVPDDLPLVVVDPENGTVTLLHFDRETGRVRARVVRLGDGVPEEEEAVFPVAPDALSAGG [r13_851_TrMRF]”, the “folding stability dG unfold” value falls from 4.54 ± 0.1 kcal/mol to -0.261 ± 0.18 kcal/mol.

First: SAGGSAGGSAGSVTVTLSSDPDKTFTVTLPGGETVTFQPTPTNQVTVTVTSPTTPVTVTVSSAGGSAGGSAG [r3_334_JUSTAS]
Second: SAGGSAGGSAGKKIKYRITIYNKKTGKTIEIEIEMSEDEIKKIAEELAKKYNVKIKIEPVSAGGSAGGSAGG [r11_515_TrROS_Hall]
The “folding stability dG unfold” value of the first is lower: 0.636 ± 0.084 kcal/mol for the first, 4.79 ± 0.13 kcal/mol for the second.

Going from “SAGTIREALDNPKNKRVVIMIMIPPEDFPPGDPERYRERAREMANGIMGWFRERGLDVKIEIEIMYMPWSAG [r5_408_TrROS]” to “SAGGSAGGSAGGSFEVVSVDETVTVPPGATVTIVVRDENGKLLTFTFEVRLVPPPPEEESAGGSAGGSAGGS [r10_573_TrROS_Hall]”, the “folding stability dG unfold” value falls from 2.77 ± 0.03 kcal/mol to 1.95 ± 0.072 kcal/mol.

With “SAGGSAGGNVILVETGPDGRARVLVFDPETGKVTEYEVPADDLDAIEAIAADKVDLVIVRPVGPSAGGSAGG [r6_639_TrMRF]” the “folding stability dG unfold” value was 2.23 ± 0.028 kcal/mol.

experiment: folding stability dG unfold (combined trypsin and chymotrypsin); higher = more stable
Procedure, shortened: as §1

Going from “SAGGMVVVAVEVDPVTKTATIVYAAPVPNLGGYVPIPAAAVAKRLTEELGLPDVKEVTVAQAAGDVPISAGG [r13_327_TrMRF]” to “KKIHIMFNNPQHVRRIAKKLGPNVKPDDVKKNPNGYYYFEIDLPNGRPIDIHIPSENMPAEDIVDYALEMLS [r1_279_TrROS]”, the “folding stability dG unfold” value rises from 0.578 ± 0.12 kcal/mol to 0.894 ± 0.058 kcal/mol.

Going from “SAGGSAGGDKKGKPKPQWVTIMFKVPDDDLPPEEIAKEFPGVKIERSPGMYMITVPVNGKWIPFSAGGSAGG [r6_739_TrROS]” to “SAGGMPVTTTPRTVELPDRRVEVIDRTFPNGPPRTTVVVRDPAGNLVATREFTGPEWEEWLRAEGALLSAGG [r19_90_JUSTAS]”, the “folding stability dG unfold” value falls from 1.13 ± 0.093 kcal/mol to 0.707 ± 0.048 kcal/mol.

Compared with “SGEIIGEQTFPVEDGGKVPVKIYKNPGNLYAEVFNDDDKPIQEQEIPPDDDLEDIENIKLPPGAWVRIYWSA [r9_215_TrROS]”, “SAGGSAGGSASKDDKIVKVKVFTIKLKPNLEGLPKKVRELLEKLGIKEIKITFVSVFNPEDFSAGGSAGGSA [r18_127_TrMRF]” is higher in “folding stability dG unfold” value: 0.433 ± 0.3 kcal/mol for the first, 3.93 ± 0.17 kcal/mol for the second.

“SAGGSAGGSAGGSKIRLKINMTEEELKELLKKLFPNAKVTRIERKKDGSIYVEIELEPESAGGSAGGSAGGS [r4_95_TrROS_Hall]” and “SAGGSAGGSAKMIIRIRNKNGKIIELTLEEVAKKLGLSKEEMTAEEILKKLKENIEKVEILPSAGGSAGGSA [r18_403_TrROS_Hall]” are within error of each other in “folding stability dG unfold” value: 3.09 ± 0.11 kcal/mol for the first, 3.1 ± 0.07 kcal/mol for the second.

First: SAGGSAGGSALDDFKIEEVQYDPDGNTIRFIFKFPGQVWILRIRMPKNGKMEIEWIPADDISAGGSAGGSAG [r3_167_TrROS]
Second: SAGGSAKEVKIKFTRNPDGTLTMEITFEDGYVIRKTFTVKNGKLTEKVEVFPVKLDPETGKLVLLPSAGGSA [r15_746_TrROS_Hall]
The “folding stability dG unfold” value of the first is higher: 4.36 ± 0.18 kcal/mol for the first, 2.84 ± 0.087 kcal/mol for the second.

Compared with “SASLEPVATTAVPLPDGTTATLTLYRDPATGRYTVRVTVTHPDGAAETRVLEVDSEEEALSRVVLSPGASAG [r14_749_JUSTAS]”, “SAGGSAGGEPETIEIKMTPEELEELARELEKEGYTIEVEVVEEKVVGPDGKEREVVVRVRVEKRSAGGSAGG [r6_857_TrROS_Hall]” is lower in “folding stability dG unfold” value: 3.12 ± 0.075 kcal/mol for the first, 1.1 ± 0.099 kcal/mol for the second.

Going from “SAGGSAKITIHMAPDGMFQIEIKTGGKERTYHVDMPLEQIKDELEDEGLEIKDIEITPFPPDPEDFSAGGSA [r15_576_TrROS]” to “SAGGSAGGSMKVYKLPGGYTVTVEPVDGGTLVTITLPDGSVKTKFVPPDEPVVVDPNGAKITVSAGGSAGGS [r12_281_JUSTAS]”, the “folding stability dG unfold” value rises from -0.409 ± 0.16 kcal/mol to 2.29 ± 0.077 kcal/mol.

Compared with “SAGGMILKITIPKEDEEKAKELADELAKKLEEETGKPIKVKVKVEKNENGELTIVIEVDGKKIEIKLSAGGS [r16_356_TrROS_Hall]”, “SERLKLKITIKNANGETYEVEIEFDLETNELTIKVKPVPALPPVTEKRVVKKDGKLVEETRTVLLSEEDLSA [r9_587_TrROS_Hall]” is higher in “folding stability dG unfold” value: 0.999 ± 0.27 kcal/mol for the first, 1.74 ± 0.38 kcal/mol for the second.

Compared with “SAGGSAGGSAGGPLKVEVIGSIEGDDRVYVLTRVPGVGGLFVAEYEKPSGKILSVSPVPLSAGGSAGGSAGG [r7_154_TrMRF]”, “SAGGPPNGMVPIKVPIKIRFPNGHEFKIDEAYVMPNGMVMIEMTHTDPDDKKEKFPFMIPPDNLEIVSAGGS [r16_498_TrROS]” is higher in “folding stability dG unfold” value: 1.07 ± 0.081 kcal/mol for the first, 1.86 ± 0.19 kcal/mol for the second.

Compared with “SAGGSAGGSGSFSLSFPDADGVSVTLDPNTGIVTMSFNRPDANYTITLERYPDSIVVKEIKLPSAGGSAGGS [r20_60_JUSTAS]”, “SAGGSAKKTYIIKIPVKEIVVKDKKTGKYKPISAEELAKLLEEKTGLKVEIVEVKDGYIVIKVKEKSAGGSA [r15_55_TrROS_Hall]” is higher in “folding stability dG unfold” value: 1.32 ± 0.062 kcal/mol for the first, 2.74 ± 0.13 kcal/mol for the second.

In the case of “SAGGSALTLNDKSLIPKPFPKKKAIVDVAVPLPPNLTLEEALEVAEAIANNLLKAGKIDEATVAIYSAGGSA [r15_450_TrMRF]”, the “folding stability dG unfold” value is reported as 0.108 ± 0.091 kcal/mol.
